# Positions of bridges follow the written chain, without caps; N, C: chain ends. Non-standard residues stand in square brackets, D forms with d. No end group written: not given here. *: point of attachment. Acetyl(2-(4-imidazolyl)) = O=C(Cc1c[nH]cn1)*; Aib = CC(C)(N)C(=O)O
# Target: human GLP-1 receptor (human, UniProt P43220 24-463)
# Test: cell-based or functional assay
row,Binder,In vitro Activity Compared to Native Peptide (%) vs. GLP-1
1,Y[Aib]QGTFTSDYSKYLDECRAKEFVQWLKNGGPSSGAPPPS (bridge 16-20) [triple agonist of SEQ ID NO: 24],41.2%
2,H[Aib]QGTFTSDCSKYLDSRAAQDFVQWLLDGGPSSGAPPPS [triple agonist of SEQ ID NO: 26],64.5%
3,H[Aib]QGTFTSDYSKYLDERACQDFVQWLLDQGGPSSGAPPPS [triple agonist of SEQ ID NO: 27],83.1%
4,[Acetyl(2-(4-imidazolyl))]GQGTFTSDLSKQMDEERAREFIEWLLAQKPSSGAPPPSHG [triple agonist of SEQ ID NO: 17],0.2%
5,Y[Aib]QGTFTSDYSKYLDECRAKEFVQWLLDHHPSSGQPPPS (bridge 16-20) [triple agonist of SEQ ID NO: 21],17.8%
6,[Acetyl(2-(4-imidazolyl))]GQGTFTSDLSIQYEEEAQQDFVEWLKDTGPSSGAPPPSHG [triple agonist of SEQ ID NO: 20],< 0.1%
7,H[Aib]QGTFTSDYSKYLDEKRAQEFVCWLLAQKGKKNDWKHNIT [triple agonist of SEQ ID NO: 28],17.2%
8,Y[Aib]QGTFTSDYSKCLDEKRAKEFVQWLLDHHPSSGQPPPS (bridge 16-20) [triple agonist of SEQ ID NO: 22],20.1%
9,H[Aib]QGTFTSDCSKYLDERAAQDFVQWLLDGGPSSGAPPPS [triple agonist of SEQ ID NO: 25],82.6%
10,Y[Aib]QGTFTSDYSKYLDECRAKEFVQWLLAQKGKKNDWKHNIT (bridge 16-20) [triple agonist of SEQ ID NO: 23],4.01%
11,[Acetyl(2-(4-imidazolyl))]GQGTFTSDLSIQYDSEHQRDFIEWLKDTGPSSGAPPPSHG [triple agonist of SEQ ID NO: 19],< 0.1%
12,H[Aib]QGTFTSDVSSYLLGQAAKQFIAWLVKGGGPSSGAPPPSC [triple agonist of SEQ ID NO: 3],1.8%
13,[Acetyl(2-(4-imidazolyl))]GQGTFTSDLSKQMDSERAREFIEWLKNTGPSSGAPPPSHG [triple agonist of SEQ ID NO: 18],< 0.1%

# Target: human GCG receptor (human, UniProt P47871 26-477)
# Test: cell-based or functional assay
# human GCG receptor, sequence (P47871 26-477): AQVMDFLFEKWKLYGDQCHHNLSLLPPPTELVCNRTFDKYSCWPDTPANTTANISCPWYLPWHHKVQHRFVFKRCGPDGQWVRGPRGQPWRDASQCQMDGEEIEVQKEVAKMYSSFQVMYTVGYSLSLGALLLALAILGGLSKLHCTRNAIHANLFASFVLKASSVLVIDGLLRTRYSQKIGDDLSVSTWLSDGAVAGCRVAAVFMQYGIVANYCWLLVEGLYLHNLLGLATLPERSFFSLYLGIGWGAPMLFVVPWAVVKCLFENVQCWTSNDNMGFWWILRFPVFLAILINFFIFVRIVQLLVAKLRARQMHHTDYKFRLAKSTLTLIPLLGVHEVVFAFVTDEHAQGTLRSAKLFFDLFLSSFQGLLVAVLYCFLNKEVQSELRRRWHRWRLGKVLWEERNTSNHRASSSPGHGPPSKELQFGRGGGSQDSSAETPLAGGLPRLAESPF
row,Binder,In vitro Activity Compared to Native Peptide (%) vs. Glucagon
1,Y[Aib]QGTFTSDYSKYLDECRAKEFVQWLKNGGPSSGAPPPS (bridge 16-20) [triple agonist of SEQ ID NO: 24],9.3%
2,H[Aib]QGTFTSDCSKYLDSRAAQDFVQWLLDGGPSSGAPPPS [triple agonist of SEQ ID NO: 26],0.2%
3,H[Aib]QGTFTSDYSKYLDERACQDFVQWLLDQGGPSSGAPPPS [triple agonist of SEQ ID NO: 27],0.8%
4,[Acetyl(2-(4-imidazolyl))]GQGTFTSDLSKQMDEERAREFIEWLLAQKPSSGAPPPSHG [triple agonist of SEQ ID NO: 17],< 0.1%
5,Y[Aib]QGTFTSDYSKYLDECRAKEFVQWLLDHHPSSGQPPPS (bridge 16-20) [triple agonist of SEQ ID NO: 21],267%
6,[Acetyl(2-(4-imidazolyl))]GQGTFTSDLSIQYEEEAQQDFVEWLKDTGPSSGAPPPSHG [triple agonist of SEQ ID NO: 20],< 0.1%
7,H[Aib]QGTFTSDYSKYLDEKRAQEFVCWLLAQKGKKNDWKHNIT [triple agonist of SEQ ID NO: 28],1.6%
8,Y[Aib]QGTFTSDYSKCLDEKRAKEFVQWLLDHHPSSGQPPPS (bridge 16-20) [triple agonist of SEQ ID NO: 22],140%
9,H[Aib]QGTFTSDCSKYLDERAAQDFVQWLLDGGPSSGAPPPS [triple agonist of SEQ ID NO: 25],0.1%
10,Y[Aib]QGTFTSDYSKYLDECRAKEFVQWLLAQKGKKNDWKHNIT (bridge 16-20) [triple agonist of SEQ ID NO: 23],9.3%
11,[Acetyl(2-(4-imidazolyl))]GQGTFTSDLSIQYDSEHQRDFIEWLKDTGPSSGAPPPSHG [triple agonist of SEQ ID NO: 19],< 0.1%
12,H[Aib]QGTFTSDVSSYLLGQAAKQFIAWLVKGGGPSSGAPPPSC [triple agonist of SEQ ID NO: 3],< 0.1%
13,[Acetyl(2-(4-imidazolyl))]GQGTFTSDLSKQMDSERAREFIEWLKNTGPSSGAPPPSHG [triple agonist of SEQ ID NO: 18],< 0.1%

# Target: T1, human GIP receptor (human, UniProt P48546 22-466)
# T1 sequence (looked up): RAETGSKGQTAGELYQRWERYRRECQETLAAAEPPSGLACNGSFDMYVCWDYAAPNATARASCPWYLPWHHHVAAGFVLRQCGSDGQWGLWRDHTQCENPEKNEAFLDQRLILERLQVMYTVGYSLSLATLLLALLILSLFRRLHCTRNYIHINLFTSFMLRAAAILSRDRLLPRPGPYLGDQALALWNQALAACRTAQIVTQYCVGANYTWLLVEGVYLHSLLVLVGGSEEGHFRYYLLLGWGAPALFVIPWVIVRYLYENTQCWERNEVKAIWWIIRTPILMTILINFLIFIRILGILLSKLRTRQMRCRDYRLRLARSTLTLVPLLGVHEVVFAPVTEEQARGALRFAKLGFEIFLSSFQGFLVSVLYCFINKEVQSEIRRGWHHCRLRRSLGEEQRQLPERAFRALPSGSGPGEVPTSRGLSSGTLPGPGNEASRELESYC
# Test: cell-based or functional assay
row,Binder,In vitro Activity Compared to Native Peptide (%) vs. GIP
1,Y[Aib]QGTFTSDYSKYLDECRAKEFVQWLKNGGPSSGAPPPS (bridge 16-20) [triple agonist of SEQ ID NO: 24],< 0.1%
2,H[Aib]QGTFTSDCSKYLDSRAAQDFVQWLLDGGPSSGAPPPS [triple agonist of SEQ ID NO: 26],< 0.1%
3,H[Aib]QGTFTSDYSKYLDERACQDFVQWLLDQGGPSSGAPPPS [triple agonist of SEQ ID NO: 27],0.9%
4,[Acetyl(2-(4-imidazolyl))]GQGTFTSDLSKQMDEERAREFIEWLLAQKPSSGAPPPSHG [triple agonist of SEQ ID NO: 17],< 0.1%
5,Y[Aib]QGTFTSDYSKYLDECRAKEFVQWLLDHHPSSGQPPPS (bridge 16-20) [triple agonist of SEQ ID NO: 21],22.7%
6,[Acetyl(2-(4-imidazolyl))]GQGTFTSDLSIQYEEEAQQDFVEWLKDTGPSSGAPPPSHG [triple agonist of SEQ ID NO: 20],< 0.1%
7,H[Aib]QGTFTSDYSKYLDEKRAQEFVCWLLAQKGKKNDWKHNIT [triple agonist of SEQ ID NO: 28],< 0.1%
8,Y[Aib]QGTFTSDYSKCLDEKRAKEFVQWLLDHHPSSGQPPPS (bridge 16-20) [triple agonist of SEQ ID NO: 22],59.7%
9,H[Aib]QGTFTSDCSKYLDERAAQDFVQWLLDGGPSSGAPPPS [triple agonist of SEQ ID NO: 25],< 0.1%
10,Y[Aib]QGTFTSDYSKYLDECRAKEFVQWLLAQKGKKNDWKHNIT (bridge 16-20) [triple agonist of SEQ ID NO: 23],< 0.1%
11,[Acetyl(2-(4-imidazolyl))]GQGTFTSDLSIQYDSEHQRDFIEWLKDTGPSSGAPPPSHG [triple agonist of SEQ ID NO: 19],< 0.1%
12,H[Aib]QGTFTSDVSSYLLGQAAKQFIAWLVKGGGPSSGAPPPSC [triple agonist of SEQ ID NO: 3],< 0.1%
13,[Acetyl(2-(4-imidazolyl))]GQGTFTSDLSKQMDSERAREFIEWLKNTGPSSGAPPPSHG [triple agonist of SEQ ID NO: 18],< 0.1%

# From patent US20230118307A1, “THERAPEUTIC USE OF LONG-ACTING CONJUGATE OF TRIPLE AGONIST HAVING ACTIVITIES TO ALL OF GLUCAGON/GLP-1/GIP RECEPTORS FOR LUNG DISEASE” (HANMI PHARM. CO., LTD., priority 2020, published 2023)
